From publication PMC12807514
Read-outs that look alike come from different tables or passages of the source. Values belong to the substance of their own block, whether it stands above or below them.

What was measured:
CCR7 (Homo sapiens) [1] = biological target: CCR7 (Homo sapiens) (UniProt P32248); conditions: cited from earlier work
CCR7 (Homo sapiens) [2] = biological target: CCR7 (Homo sapiens) (UniProt P32248); conditions: cited from earlier work; remark: listed apart in the source
[3] = biological target: C-C Chemokine Receptor 7 (CCR7), endogenous in CEM cells (human (endogenous in CEM)) (UniProt P32248)

Chain of CCL19 (Q99731 22-98): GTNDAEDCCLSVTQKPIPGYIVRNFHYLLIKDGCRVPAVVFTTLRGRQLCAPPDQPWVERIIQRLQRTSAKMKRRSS

Substance: CCL19 (from UniProt Q99731)
Kd (CCR7 (Homo sapiens) [1]): 0.1 nM

Substance: CCL21 (from UniProt O00585)
Kd (CCR7 (Homo sapiens) [2]): 0.1 nM

CCR7 internalization (CCR7 left on the surface, flow cytometry) in CEM T cells with 200 nM CCL19, measured at 2 min intervals over 10 min [3]: 80%
Substance: human C-C Chemokine Ligand 19 (hCCL19) (from UniProt Q99731 22-98)
